Reference: patent US11130793B2, “GLP-1/GLP-2 dual agonists” (Zealand Pharma A/S, priority 2016, dated 2021)
Square brackets hold non-standard residues; d marks the D form. Aib = CC(C)(N)C(=O)O

T1: human GLP-2 receptor (hGLP2-R) (human, UniProt O95838)
T1 sequence: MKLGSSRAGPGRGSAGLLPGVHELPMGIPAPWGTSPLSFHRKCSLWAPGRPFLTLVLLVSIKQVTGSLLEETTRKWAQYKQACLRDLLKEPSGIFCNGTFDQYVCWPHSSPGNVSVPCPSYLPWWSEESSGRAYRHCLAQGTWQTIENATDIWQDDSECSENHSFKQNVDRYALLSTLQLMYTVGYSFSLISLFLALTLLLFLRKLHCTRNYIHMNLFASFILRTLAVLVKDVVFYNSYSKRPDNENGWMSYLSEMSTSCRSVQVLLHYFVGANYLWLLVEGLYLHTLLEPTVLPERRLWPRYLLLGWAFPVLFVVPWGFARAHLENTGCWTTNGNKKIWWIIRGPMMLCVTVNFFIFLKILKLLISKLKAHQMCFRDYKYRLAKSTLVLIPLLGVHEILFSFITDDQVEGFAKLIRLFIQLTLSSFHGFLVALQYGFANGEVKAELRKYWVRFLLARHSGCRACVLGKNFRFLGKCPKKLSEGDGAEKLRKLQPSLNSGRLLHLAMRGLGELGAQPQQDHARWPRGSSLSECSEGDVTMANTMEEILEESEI


Legend:
[1] = target: human glucagon-like peptide 1 receptor (GLP-1R) (human, UniProt P43220); assay: cell-based or functional assay
[2] = target: T1, human GLP-2 receptor (hGLP2-R); assay: cell-based or functional assay

Row | Binder | EC50 GLP-1 (nM); cAMP AlphaScreen [1] [nM] | EC50 GLP-2 (nM); cAMP AlphaScreen [2] [nM]
1 | H-H[Aib]EGTFSSELATILDGKAARDFIAWLIAHKITD-OH (SMILES CC[C@H](C)[C@H](NC(=O)[C@H](CC(C)C)NC(=O)[C@H](Cc1c[nH]c2ccccc12)NC(=O)[C@H](C)NC(=O)[C@@H](NC(=O)[C@H](Cc1ccccc1)NC(=O)[C@H](CC(=O)O)NC(=O)[C@H](CCCNC(=N)N)NC(=O)[C@H](C)NC(=O)[C@H](C)NC(=O)[C@H](CCCCN)NC(=O)CNC(=O)[C@H](CC(=O)O)NC(=O)[C@H](CC(C)C)NC(=O)[C@@H](NC(=O)[C@@H](NC(=O)[C@H](C)NC(=O)[C@H](CC(C)C)NC(=O)[C@H](CCC(=O)O)NC(=O)[C@H](CO)NC(=O)[C@H](CO)NC(=O)[C@H](Cc1ccccc1)NC(=O)[C@@H](NC(=O)CNC(=O)[C@H](CCC(=O)O)NC(=O)C(C)(C)NC(=O)[C@@H](N)Cc1c[nH]cn1)[C@@H](C)O)[C@@H](C)O)[C@@H](C)CC)[C@@H](C)CC)C(=O)N[C@@H](C)C(=O)N[C@@H](Cc1c[nH]cn1)C(=O)N[C@@H](CCCCN)C(=O)N[C@H](C(=O)N[C@H](C(=O)N[C@@H](CC(=O)O)C(=O)O)[C@@H](C)O)[C@@H](C)CC) [Compound 32] | 0.038 | 0.15
2 | H-H[Aib]EGTFTSELATILDEQAARDFINWLKAHKITD-OH (SMILES CC[C@H](C)[C@H](NC(=O)[C@H](Cc1ccccc1)NC(=O)[C@H](CC(=O)O)NC(=O)[C@H](CCCNC(=N)N)NC(=O)[C@H](C)NC(=O)[C@H](C)NC(=O)[C@H](CCC(N)=O)NC(=O)[C@H](CCC(=O)O)NC(=O)[C@H](CC(=O)O)NC(=O)[C@H](CC(C)C)NC(=O)[C@@H](NC(=O)[C@@H](NC(=O)[C@H](C)NC(=O)[C@H](CC(C)C)NC(=O)[C@H](CCC(=O)O)NC(=O)[C@H](CO)NC(=O)[C@@H](NC(=O)[C@H](Cc1ccccc1)NC(=O)[C@@H](NC(=O)CNC(=O)[C@H](CCC(=O)O)NC(=O)C(C)(C)NC(=O)[C@@H](N)Cc1c[nH]cn1)[C@@H](C)O)[C@@H](C)O)[C@@H](C)O)[C@@H](C)CC)C(=O)N[C@@H](CC(N)=O)C(=O)N[C@@H](Cc1c[nH]c2ccccc12)C(=O)N[C@@H](CC(C)C)C(=O)N[C@@H](CCCCN)C(=O)N[C@@H](C)C(=O)N[C@@H](Cc1c[nH]cn1)C(=O)N[C@@H](CCCCN)C(=O)N[C@H](C(=O)N[C@H](C(=O)N[C@@H](CC(=O)O)C(=O)O)[C@@H](C)O)[C@@H](C)CC) [Compound 35] | 0.006 | 0.048
3 | H-H[Aib]EGSFTSELATILDGKAARDFIAWLIAHKITD-OH (SMILES CC[C@H](C)[C@H](NC(=O)[C@H](CC(C)C)NC(=O)[C@H](Cc1c[nH]c2ccccc12)NC(=O)[C@H](C)NC(=O)[C@@H](NC(=O)[C@H](Cc1ccccc1)NC(=O)[C@H](CC(=O)O)NC(=O)[C@H](CCCNC(=N)N)NC(=O)[C@H](C)NC(=O)[C@H](C)NC(=O)[C@H](CCCCN)NC(=O)CNC(=O)[C@H](CC(=O)O)NC(=O)[C@H](CC(C)C)NC(=O)[C@@H](NC(=O)[C@@H](NC(=O)[C@H](C)NC(=O)[C@H](CC(C)C)NC(=O)[C@H](CCC(=O)O)NC(=O)[C@H](CO)NC(=O)[C@@H](NC(=O)[C@H](Cc1ccccc1)NC(=O)[C@H](CO)NC(=O)CNC(=O)[C@H](CCC(=O)O)NC(=O)C(C)(C)NC(=O)[C@@H](N)Cc1c[nH]cn1)[C@@H](C)O)[C@@H](C)O)[C@@H](C)CC)[C@@H](C)CC)C(=O)N[C@@H](C)C(=O)N[C@@H](Cc1c[nH]cn1)C(=O)N[C@@H](CCCCN)C(=O)N[C@H](C(=O)N[C@H](C(=O)N[C@@H](CC(=O)O)C(=O)O)[C@@H](C)O)[C@@H](C)CC) [Compound 31] | 0.02 | 0.078
4 | H-H[Aib]EGTFTSELATILDEQAARDFISWLIAHKITD-OH (SMILES CC[C@H](C)[C@H](NC(=O)[C@H](CC(C)C)NC(=O)[C@H](Cc1c[nH]c2ccccc12)NC(=O)[C@H](CO)NC(=O)[C@@H](NC(=O)[C@H](Cc1ccccc1)NC(=O)[C@H](CC(=O)O)NC(=O)[C@H](CCCNC(=N)N)NC(=O)[C@H](C)NC(=O)[C@H](C)NC(=O)[C@H](CCC(N)=O)NC(=O)[C@H](CCC(=O)O)NC(=O)[C@H](CC(=O)O)NC(=O)[C@H](CC(C)C)NC(=O)[C@@H](NC(=O)[C@@H](NC(=O)[C@H](C)NC(=O)[C@H](CC(C)C)NC(=O)[C@H](CCC(=O)O)NC(=O)[C@H](CO)NC(=O)[C@@H](NC(=O)[C@H](Cc1ccccc1)NC(=O)[C@@H](NC(=O)CNC(=O)[C@H](CCC(=O)O)NC(=O)C(C)(C)NC(=O)[C@@H](N)Cc1c[nH]cn1)[C@@H](C)O)[C@@H](C)O)[C@@H](C)O)[C@@H](C)CC)[C@@H](C)CC)C(=O)N[C@@H](C)C(=O)N[C@@H](Cc1c[nH]cn1)C(=O)N[C@@H](CCCCN)C(=O)N[C@H](C(=O)N[C@H](C(=O)N[C@@H](CC(=O)O)C(=O)O)[C@@H](C)O)[C@@H](C)CC) [Compound 34] | 0.005 | 0.049
5 | H-H[Aib]EGTFTSELATILDEQAARDFINWLIAHKITD-OH (SMILES CC[C@H](C)[C@H](NC(=O)[C@H](CC(C)C)NC(=O)[C@H](Cc1c[nH]c2ccccc12)NC(=O)[C@H](CC(N)=O)NC(=O)[C@@H](NC(=O)[C@H](Cc1ccccc1)NC(=O)[C@H](CC(=O)O)NC(=O)[C@H](CCCNC(=N)N)NC(=O)[C@H](C)NC(=O)[C@H](C)NC(=O)[C@H](CCC(N)=O)NC(=O)[C@H](CCC(=O)O)NC(=O)[C@H](CC(=O)O)NC(=O)[C@H](CC(C)C)NC(=O)[C@@H](NC(=O)[C@@H](NC(=O)[C@H](C)NC(=O)[C@H](CC(C)C)NC(=O)[C@H](CCC(=O)O)NC(=O)[C@H](CO)NC(=O)[C@@H](NC(=O)[C@H](Cc1ccccc1)NC(=O)[C@@H](NC(=O)CNC(=O)[C@H](CCC(=O)O)NC(=O)C(C)(C)NC(=O)[C@@H](N)Cc1c[nH]cn1)[C@@H](C)O)[C@@H](C)O)[C@@H](C)O)[C@@H](C)CC)[C@@H](C)CC)C(=O)N[C@@H](C)C(=O)N[C@@H](Cc1c[nH]cn1)C(=O)N[C@@H](CCCCN)C(=O)N[C@H](C(=O)N[C@H](C(=O)N[C@@H](CC(=O)O)C(=O)O)[C@@H](C)O)[C@@H](C)CC) [Compound 33] | 0.004 | 0.041
6 | H-H[Aib]EGTFTSELATILDEQAARDFINWLKSYKITD-OH (SMILES CC[C@H](C)[C@H](NC(=O)[C@H](Cc1ccccc1)NC(=O)[C@H](CC(=O)O)NC(=O)[C@H](CCCNC(=N)N)NC(=O)[C@H](C)NC(=O)[C@H](C)NC(=O)[C@H](CCC(N)=O)NC(=O)[C@H](CCC(=O)O)NC(=O)[C@H](CC(=O)O)NC(=O)[C@H](CC(C)C)NC(=O)[C@@H](NC(=O)[C@@H](NC(=O)[C@H](C)NC(=O)[C@H](CC(C)C)NC(=O)[C@H](CCC(=O)O)NC(=O)[C@H](CO)NC(=O)[C@@H](NC(=O)[C@H](Cc1ccccc1)NC(=O)[C@@H](NC(=O)CNC(=O)[C@H](CCC(=O)O)NC(=O)C(C)(C)NC(=O)[C@@H](N)Cc1c[nH]cn1)[C@@H](C)O)[C@@H](C)O)[C@@H](C)O)[C@@H](C)CC)C(=O)N[C@@H](CC(N)=O)C(=O)N[C@@H](Cc1c[nH]c2ccccc12)C(=O)N[C@@H](CC(C)C)C(=O)N[C@@H](CCCCN)C(=O)N[C@@H](CO)C(=O)N[C@@H](Cc1ccc(O)cc1)C(=O)N[C@@H](CCCCN)C(=O)N[C@H](C(=O)N[C@H](C(=O)N[C@@H](CC(=O)O)C(=O)O)[C@@H](C)O)[C@@H](C)CC) [Compound 36] | 0.007 | 0.11
7 | H-H[Aib]EGTFSSELATILDEQAARDFIAWLIAHKITD-OH (SMILES CC[C@H](C)[C@H](NC(=O)[C@H](CC(C)C)NC(=O)[C@H](Cc1c[nH]c2ccccc12)NC(=O)[C@H](C)NC(=O)[C@@H](NC(=O)[C@H](Cc1ccccc1)NC(=O)[C@H](CC(=O)O)NC(=O)[C@H](CCCNC(=N)N)NC(=O)[C@H](C)NC(=O)[C@H](C)NC(=O)[C@H](CCC(N)=O)NC(=O)[C@H](CCC(=O)O)NC(=O)[C@H](CC(=O)O)NC(=O)[C@H](CC(C)C)NC(=O)[C@@H](NC(=O)[C@@H](NC(=O)[C@H](C)NC(=O)[C@H](CC(C)C)NC(=O)[C@H](CCC(=O)O)NC(=O)[C@H](CO)NC(=O)[C@H](CO)NC(=O)[C@H](Cc1ccccc1)NC(=O)[C@@H](NC(=O)CNC(=O)[C@H](CCC(=O)O)NC(=O)C(C)(C)NC(=O)[C@@H](N)Cc1c[nH]cn1)[C@@H](C)O)[C@@H](C)O)[C@@H](C)CC)[C@@H](C)CC)C(=O)N[C@@H](C)C(=O)N[C@@H](Cc1c[nH]cn1)C(=O)N[C@@H](CCCCN)C(=O)N[C@H](C(=O)N[C@H](C(=O)N[C@@H](CC(=O)O)C(=O)O)[C@@H](C)O)[C@@H](C)CC) [Compound 2] | 0.046 | 0.034
